The experiment addresses human 26S proteasome (human) (UniProt P60900).

One may read the Kd as the concentration at which binding is half-saturated. High values mean weaker binding, low ones tighter binding. “K48 linked tetra-ubiquitin chains (from UniProt P0CG47 1-76)” came in with a Kd of 239 nM.

These data come from paper doi:10.1101/2021.10.03.462214.
